Data from patent US12545899B2, “Luciferase enzymes for use with thermostable luciferins in bioluminescent assays” (Promega Corporation, priority 2018, dated 2026).
Positions count from the first letter of the chain named. Names may count otherwise. Blank lines part the entries; values can stand above or below the molecule they belong to.

Experiments:
[1] = Purified enzyme activity of ATG-2890 with CS0333 (FIGS. 9C-9D); assay type: biochemical
Description: (§1) FIG. 9A includes a representative graph assessing the activities of luciferase enzyme variants ATG-2877, ATG-2624, and ATG-2890 in the presence of 5,5-disubstituted luciferin analog substrate. Luciferin analog compounds were diluted from 50 mM to 20 mM in reaction buffer (either Bright-Glo™ or Detection Reagent buffer). […] Reagent compositions included 50 μl Reaction Buffer+ATP, which was combined with 50 μl diluted enzyme. Plates were incubated at room temp for 30 minutes to minimize background, and 5 μl of luciferin analog substrate was added to a final concentration of 1 mM. Plates were read before and after compound addition at 3 mins and 20 mins.

[2] = Purified enzyme activity of ATG-2890 with CS0280 (FIGS. 9C-9D); assay type: biochemical
Description: as §1

[3] = E. coli lysate screen of epPCR/DNA shuffling variants with CS0333; assay type: biochemical; conditions: Detection Reagent, 1 mM ATP, 500 μM substrate, 3 mins
Description: (§2) These experiments included lysing E. coli cells expressing each luciferase enzyme variant in Detection Reagent containing 1 mM ATP+500 μM substrate. The cell lysate was incubated at room temperature for 3 mins and luminescence was read. The raw luminescence reading was normalized to the on-plate luminescence of ATG-2889, which was used as a control in this screen.

[4] = E. coli lysate screen of epPCR/DNA shuffling variants with CS0280; assay type: biochemical; conditions: Detection Reagent, 1 mM ATP, 500 μM substrate, 3 mins
Description: as §2

[5] = Effect of V300G, L305F, S306P on activity with CS0333 (FIG. 13); assay type: biochemical; conditions: 1 mM ATP; 100 nM to 1 mM substrate; Bright-Glo buffer
Description: FIG. 13 includes a representative graph of the effects of amino acid substitutions V300G, L305F, and S306P on enzyme activity with the CS0333 analog. Reagent compositions included […]+1 mM ATP+100 nM to 1 mM substrate in Bright-Glo™ buffer.

[6] = Inhibition of luciferase enzyme variants by dehydro-F-luciferin; assay type: biochemical; conditions: for inhibition by dehydro-F-luciferin relative to Ppe variant (SEQ ID NO: 1): Detection reagent buffer or Bright-Glo buffer (FIGS. 20, 21); for resistance to inhibition by dehydro F-luciferin: 1 μM F-luciferin, 1 mM ATP (FIG. 26)
Description: Reagent compositions include 0.022 μM-366.97 μM Dehydro F-luciferin titration, 1 mM ATP, 1 μM F-luciferin, and 0.005 mg/ml enzyme. […] Both amino acid substitutions L305F and S306P conferred improved resistance to the inhibitor individually and in combination.

[7] = Kinetic analysis of Ppe variant, ATG-3707, ATG-4117 with D/L-luciferin; assay type: biochemical
Description: (§3) Kinetic tests of these luciferase enzyme variants were also conducted. […] Reagent compositions included 0.005 mg/ml luciferase enzyme variant+1 mM ATP, and 0.1 fM to 1 mM substrate in Bright-Glo™ (BG) or Detection Reagent (DR) buffers. The composition was incubated for 3 mins and read on GloMax® Multi+platform.
(§4) Table 8 below includes representative results of kinetic analysis of the thermostable luciferase variants of Ppe (SEQ ID NO: 1), ATG-3707, and ATG-4117. The Ppe variant (SEQ ID NO: 1) was tested with D/L-luciferin, and ATG-3707, and ATG-4117 were tested with CS0280 and CS0333.

[8] = Differential scanning fluorimetry (DSF) analysis; assay type: physicochemical; design: key to DSF Tm: melting temperature in °C (heated 30-95 °C at 1 °C/min); conditions: Table 7A
How it was run: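 Thermal melt with 5× final Sypro Orange: ramp 1° C/min from 30 to 95° C, reading each 60 s, derivative of fluorescence plotted by temperature. Luciferase variants were in 20 mM HEPES pH 7.5, 200 mM NaCl, 1 mM EDTA; other enzymes in 50 mM HEPES pH 7.5, 100 mM NaCl, 2 mM EDTA.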

[9] = Brightness of additional luciferase enzyme variants with CS0280; assay type: biochemical; conditions: Table 7A, 1 mM CS0280
How it was run: (§5)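 Each variant at 0.005 mg/ml combined with 1 mM ATP plus 1 mM substrate in Bright-Glo or Detection Reagent buffer; luminescence recorded as relative brightness.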

[10] = Brightness of additional luciferase enzyme variants with CS0333; assay type: biochemical; conditions: Table 7A, 1 mM CS0333
How it was run: as §5

[11] = Kinetic analysis of ATG-3707, ATG-4117 with CS0280; assay type: biochemical
Description: as §3, §4

[12] = Kinetic analysis of ATG-3707, ATG-4117 with CS0333; assay type: biochemical
Description: as §3, §4

- increase in activity with CS0333 compared to Ppe variant (SEQ ID NO: 1) ([1]; Bright-Glo Buffer): 1,470 fold
- increase in activity with CS0333 compared to Ppe variant (SEQ ID NO: 1) ([1]; Detection Buffer): 3,050 fold
- increase in activity with CS0280 compared to Ppe variant (SEQ ID NO: 1) ([2]; Bright-Glo Buffer): 120 fold
- increase in activity with CS0280 compared to Ppe variant (SEQ ID NO: 1) ([2]; Detection Buffer): 6 fold
B1: ATG-2890: SEQ ID NO: 13; I240L+H244W+Y254S+T344A+I396K (protein)
chain: MADKNILYGPEPFYPLEDGTAGEQMFDALSRYAAIPGCIALTNAHTKENVLYEEFLKLSCRLAESFKKYGLKQNDTIAVCSENSLQFFLPVIASLYLGIIVAPVNDKYIERELIHSLGIVKPRIVFCSKNTFQKVLNVKSKLKSIETIIILDLNEDLGGYQCLNNFISQNSDSNLDVKKFKPYSFNRDDQVASIMFSSGTTGLPKGVMLTHKNIVARFSIAKDPTFGNAINPTSAILTVLPFHWGFGMMTTLGSFTCGFRVVLMHTFEEKLFLQSLQDYKVESTLLVPTLMAFLAKSALVEKYDLSHLKEIASGGAPLSKEIGEMVKKRFKLNFVRQGYGLTEATSAVLITPKGDAKPGSTGKIVPLHAVKVVDPTTGKILGPNEPGELYFKGPMKMKGYYNNEEATKAIIDNDGWLRSGDIAYYDNDGHFYIVDRLKSLIKYKGYQVAPAEIEGILLQHPYIVDAGVTGIPDEAAGELPAAGVVVQTGKYLNEQIVQDYVASQVSTAKWLRGGVKFLDEIPKGSTGKIDRKVLRQMLEKHTNGHHHHHHHH

B2: C4610H6: SEQ ID NO: 66; H244W+T344A+I396K+K107Q+N228D (protein)
chain: B1 chain with K107Q, N228D, L240I, S254Y
- Normalized luminescence (Mutant RLU/ATG2889 RLU) with CS0333 [3]: 4.15
- Normalized luminescence (Mutant RLU/ATG2889 RLU) with CS0280 [4]: 3.67

B3: ATG-3549: SEQ ID NO: 14; H244W+T344A+I396K+V300G (protein)
chain: B1 chain with L240I, S254Y, V300G
- activity with CS0333 relative to Ppe variant (SEQ ID NO: 1) [5]: improved activity

B4: ATG-2624: SEQ ID NO: 3; I240L+Y254S+T344A+I396K (protein)
chain: B1 chain with W244H
- inhibition by dehydro-F-luciferin relative to Ppe variant (SEQ ID NO: 1) [6]: inhibited by dehydro-F-luciferin, but less so

B5: ATG-2625: SEQ ID NO: 4; N74N+H244R+V300G+I396K (protein)
chain: B1 chain with L240I, W244R, S254Y, V300G, A344T
- inhibition by dehydro-F-luciferin relative to Ppe variant (SEQ ID NO: 1) [6]: inhibited by dehydro-F-luciferin, but less so

B6: C4581C3: SEQ ID NO: 55; H244W+T344A+I396K+I109M+S193L (protein)
chain: B1 chain with I109M, S193L, L240I, S254Y
- Normalized luminescence (Mutant RLU/ATG2889 RLU) with CS0333 [3]: 1.04
- Normalized luminescence (Mutant RLU/ATG2889 RLU) with CS0280 [4]: 3.88

B7: C7573H3: SEQ ID NO: 70; H244W+T344A+I396K+S193A+N228D+L305F+S306P+I109V+A316W (protein)
chain: B1 chain with L240I, S254Y, L305F, A344T, K396I
- Km ([7]; BrightGlo): 0.0702 µM
- Vmax (RLU) ([7]; BrightGlo): 719,605 RLU
- Km ([7]; Detection Reagent): 2.65 µM
- Vmax (RLU) ([7]; Detection Reagent): 817,287 RLU
- DSF Tm [8]: 61
- Fold-improvement over ATG3707, CS0280 BG ([9]; Bright-Glo buffer): 6.04
- Fold-improvement over ATG3707, CS0280 DR ([9]; Detection Reagent buffer): 7.48
- Fold-improvement over ATG3707, CS0333 BG ([10]; Bright-Glo buffer): 4.35
- Fold-improvement over ATG3707, CS0333 DR ([10]; Detection Reagent buffer): 3.36
- Km ([11]; BrightGlo): 13 µM
- Vmax (RLU) ([11]; BrightGlo): 7,188,109 RLU
- Km ([11]; Detection Reagent): 419 µM
- Vmax (RLU) ([11]; Detection Reagent): 7,879,793 RLU
- Km ([12]; BrightGlo): 12.4 µM
- Vmax (RLU) ([12]; BrightGlo): 1,601,921 RLU
- Km ([12]; Detection Reagent): 758 µM
- Vmax (RLU) ([12]; Detection Reagent): 124,964 RLU

B8: C4610C10: SEQ ID NO: 65; H244W+T344A+1396K+S306P (protein)
chain: B1 chain with L240I, S254Y, S306P
- Normalized luminescence (Mutant RLU/ATG2889 RLU) with CS0333 [3]: 4.32
- Normalized luminescence (Mutant RLU/ATG2889 RLU) with CS0280 [4]: 3.60

B9: C4589D5: SEQ ID NO: 59; H244W+T344A+I396K+A40A+K107Q+S193T+A316S (protein)
chain: B1 chain with K107Q, S193T, L240I, S254Y, A316S
- Normalized luminescence (Mutant RLU/ATG2889 RLU) with CS0333 [3]: 3.79
- Normalized luminescence (Mutant RLU/ATG2889 RLU) with CS0280 [4]: 12.42

B10: C4580B10: SEQ ID NO: 53; H244W+T344A+I396K+K107Q+S193T+V262A (protein)
chain: B1 chain with K107Q, S193T, L240I, S254Y, V262A
- Normalized luminescence (Mutant RLU/ATG2889 RLU) with CS0333 [3]: 4.64
- Normalized luminescence (Mutant RLU/ATG2889 RLU) with CS0280 [4]: 9.35

B11: ATG-3551: SEQ ID NO: 16; H244W+T344A+I396K+V300G+S306P (protein)
chain: B1 chain with L240I, S254Y, V300G, S306P
- resistance to inhibition by dehydro F-luciferin [6]: conferred resistance to inhibition by dehydro F-luciferin
- activity with CS0333 relative to Ppe variant (SEQ ID NO: 1) [5]: improved activity

B12: C4584D9: SEQ ID NO: 56; H244W+T344A+I396K+I109M+S193L+L294H (protein)
chain: B1 chain with I109M, S193L, L240I, S254Y, L294H
- Normalized luminescence (Mutant RLU/ATG2889 RLU) with CS0333 [3]: 2.67
- Normalized luminescence (Mutant RLU/ATG2889 RLU) with CS0280 [4]: 12.41

B13: C4604A11: SEQ ID NO: 62; H244W+T344A+I396K+I109M+A316S (protein)
chain: B1 chain with I109M, L240I, S254Y, A316S
- Normalized luminescence (Mutant RLU/ATG2889 RLU) with CS0333 [3]: 2.41
- Normalized luminescence (Mutant RLU/ATG2889 RLU) with CS0280 [4]: 12.16

B14: ATG-3553: SEQ ID NO: 18; H244W+T344A+I396K+L305P+S306P (protein)
chain: B1 chain with L240I, S254Y, L305F, S306P
- resistance to inhibition by dehydro F-luciferin [6]: conferred resistance to inhibition by dehydro F-luciferin
- activity with CS0333 relative to Ppe variant (SEQ ID NO: 1) [5]: improved activity

B15: ATG-3552: SEQ ID NO: 17; H244W+T344A+I396K+V300G+L305P+S306P (protein)
chain: B1 chain with L240I, S254Y, V300G, L305F, S306P
- resistance to inhibition by dehydro F-luciferin [6]: conferred resistance to inhibition by dehydro F-luciferin
- activity with CS0333 relative to Ppe variant (SEQ ID NO: 1) [5]: improved activity

B16: C4588H8: SEQ ID NO: 58; H244W+T344A+I396K+K107Q+L305F (protein)
chain: B1 chain with K107Q, L240I, S254Y, L305F
- Normalized luminescence (Mutant RLU/ATG2889 RLU) with CS0333 [3]: 3.90
- Normalized luminescence (Mutant RLU/ATG2889 RLU) with CS0280 [4]: 6.56

B17: ATG-3550: SEQ ID NO: 15; H244W+T344A+I396K+V300G+L305F (protein)
chain: B1 chain with L240I, S254Y, V300G, L305F
- resistance to inhibition by dehydro F-luciferin [6]: conferred resistance to inhibition by dehydro F-luciferin
- activity with CS0333 relative to Ppe variant (SEQ ID NO: 1) [5]: highest activity
